These are literature values, as cited in publication PMC6200408.

The target in the data set is cubilin (Homo sapiens) (UniProt O60494).
UniProt O60494, sequence (O60494 36-3623): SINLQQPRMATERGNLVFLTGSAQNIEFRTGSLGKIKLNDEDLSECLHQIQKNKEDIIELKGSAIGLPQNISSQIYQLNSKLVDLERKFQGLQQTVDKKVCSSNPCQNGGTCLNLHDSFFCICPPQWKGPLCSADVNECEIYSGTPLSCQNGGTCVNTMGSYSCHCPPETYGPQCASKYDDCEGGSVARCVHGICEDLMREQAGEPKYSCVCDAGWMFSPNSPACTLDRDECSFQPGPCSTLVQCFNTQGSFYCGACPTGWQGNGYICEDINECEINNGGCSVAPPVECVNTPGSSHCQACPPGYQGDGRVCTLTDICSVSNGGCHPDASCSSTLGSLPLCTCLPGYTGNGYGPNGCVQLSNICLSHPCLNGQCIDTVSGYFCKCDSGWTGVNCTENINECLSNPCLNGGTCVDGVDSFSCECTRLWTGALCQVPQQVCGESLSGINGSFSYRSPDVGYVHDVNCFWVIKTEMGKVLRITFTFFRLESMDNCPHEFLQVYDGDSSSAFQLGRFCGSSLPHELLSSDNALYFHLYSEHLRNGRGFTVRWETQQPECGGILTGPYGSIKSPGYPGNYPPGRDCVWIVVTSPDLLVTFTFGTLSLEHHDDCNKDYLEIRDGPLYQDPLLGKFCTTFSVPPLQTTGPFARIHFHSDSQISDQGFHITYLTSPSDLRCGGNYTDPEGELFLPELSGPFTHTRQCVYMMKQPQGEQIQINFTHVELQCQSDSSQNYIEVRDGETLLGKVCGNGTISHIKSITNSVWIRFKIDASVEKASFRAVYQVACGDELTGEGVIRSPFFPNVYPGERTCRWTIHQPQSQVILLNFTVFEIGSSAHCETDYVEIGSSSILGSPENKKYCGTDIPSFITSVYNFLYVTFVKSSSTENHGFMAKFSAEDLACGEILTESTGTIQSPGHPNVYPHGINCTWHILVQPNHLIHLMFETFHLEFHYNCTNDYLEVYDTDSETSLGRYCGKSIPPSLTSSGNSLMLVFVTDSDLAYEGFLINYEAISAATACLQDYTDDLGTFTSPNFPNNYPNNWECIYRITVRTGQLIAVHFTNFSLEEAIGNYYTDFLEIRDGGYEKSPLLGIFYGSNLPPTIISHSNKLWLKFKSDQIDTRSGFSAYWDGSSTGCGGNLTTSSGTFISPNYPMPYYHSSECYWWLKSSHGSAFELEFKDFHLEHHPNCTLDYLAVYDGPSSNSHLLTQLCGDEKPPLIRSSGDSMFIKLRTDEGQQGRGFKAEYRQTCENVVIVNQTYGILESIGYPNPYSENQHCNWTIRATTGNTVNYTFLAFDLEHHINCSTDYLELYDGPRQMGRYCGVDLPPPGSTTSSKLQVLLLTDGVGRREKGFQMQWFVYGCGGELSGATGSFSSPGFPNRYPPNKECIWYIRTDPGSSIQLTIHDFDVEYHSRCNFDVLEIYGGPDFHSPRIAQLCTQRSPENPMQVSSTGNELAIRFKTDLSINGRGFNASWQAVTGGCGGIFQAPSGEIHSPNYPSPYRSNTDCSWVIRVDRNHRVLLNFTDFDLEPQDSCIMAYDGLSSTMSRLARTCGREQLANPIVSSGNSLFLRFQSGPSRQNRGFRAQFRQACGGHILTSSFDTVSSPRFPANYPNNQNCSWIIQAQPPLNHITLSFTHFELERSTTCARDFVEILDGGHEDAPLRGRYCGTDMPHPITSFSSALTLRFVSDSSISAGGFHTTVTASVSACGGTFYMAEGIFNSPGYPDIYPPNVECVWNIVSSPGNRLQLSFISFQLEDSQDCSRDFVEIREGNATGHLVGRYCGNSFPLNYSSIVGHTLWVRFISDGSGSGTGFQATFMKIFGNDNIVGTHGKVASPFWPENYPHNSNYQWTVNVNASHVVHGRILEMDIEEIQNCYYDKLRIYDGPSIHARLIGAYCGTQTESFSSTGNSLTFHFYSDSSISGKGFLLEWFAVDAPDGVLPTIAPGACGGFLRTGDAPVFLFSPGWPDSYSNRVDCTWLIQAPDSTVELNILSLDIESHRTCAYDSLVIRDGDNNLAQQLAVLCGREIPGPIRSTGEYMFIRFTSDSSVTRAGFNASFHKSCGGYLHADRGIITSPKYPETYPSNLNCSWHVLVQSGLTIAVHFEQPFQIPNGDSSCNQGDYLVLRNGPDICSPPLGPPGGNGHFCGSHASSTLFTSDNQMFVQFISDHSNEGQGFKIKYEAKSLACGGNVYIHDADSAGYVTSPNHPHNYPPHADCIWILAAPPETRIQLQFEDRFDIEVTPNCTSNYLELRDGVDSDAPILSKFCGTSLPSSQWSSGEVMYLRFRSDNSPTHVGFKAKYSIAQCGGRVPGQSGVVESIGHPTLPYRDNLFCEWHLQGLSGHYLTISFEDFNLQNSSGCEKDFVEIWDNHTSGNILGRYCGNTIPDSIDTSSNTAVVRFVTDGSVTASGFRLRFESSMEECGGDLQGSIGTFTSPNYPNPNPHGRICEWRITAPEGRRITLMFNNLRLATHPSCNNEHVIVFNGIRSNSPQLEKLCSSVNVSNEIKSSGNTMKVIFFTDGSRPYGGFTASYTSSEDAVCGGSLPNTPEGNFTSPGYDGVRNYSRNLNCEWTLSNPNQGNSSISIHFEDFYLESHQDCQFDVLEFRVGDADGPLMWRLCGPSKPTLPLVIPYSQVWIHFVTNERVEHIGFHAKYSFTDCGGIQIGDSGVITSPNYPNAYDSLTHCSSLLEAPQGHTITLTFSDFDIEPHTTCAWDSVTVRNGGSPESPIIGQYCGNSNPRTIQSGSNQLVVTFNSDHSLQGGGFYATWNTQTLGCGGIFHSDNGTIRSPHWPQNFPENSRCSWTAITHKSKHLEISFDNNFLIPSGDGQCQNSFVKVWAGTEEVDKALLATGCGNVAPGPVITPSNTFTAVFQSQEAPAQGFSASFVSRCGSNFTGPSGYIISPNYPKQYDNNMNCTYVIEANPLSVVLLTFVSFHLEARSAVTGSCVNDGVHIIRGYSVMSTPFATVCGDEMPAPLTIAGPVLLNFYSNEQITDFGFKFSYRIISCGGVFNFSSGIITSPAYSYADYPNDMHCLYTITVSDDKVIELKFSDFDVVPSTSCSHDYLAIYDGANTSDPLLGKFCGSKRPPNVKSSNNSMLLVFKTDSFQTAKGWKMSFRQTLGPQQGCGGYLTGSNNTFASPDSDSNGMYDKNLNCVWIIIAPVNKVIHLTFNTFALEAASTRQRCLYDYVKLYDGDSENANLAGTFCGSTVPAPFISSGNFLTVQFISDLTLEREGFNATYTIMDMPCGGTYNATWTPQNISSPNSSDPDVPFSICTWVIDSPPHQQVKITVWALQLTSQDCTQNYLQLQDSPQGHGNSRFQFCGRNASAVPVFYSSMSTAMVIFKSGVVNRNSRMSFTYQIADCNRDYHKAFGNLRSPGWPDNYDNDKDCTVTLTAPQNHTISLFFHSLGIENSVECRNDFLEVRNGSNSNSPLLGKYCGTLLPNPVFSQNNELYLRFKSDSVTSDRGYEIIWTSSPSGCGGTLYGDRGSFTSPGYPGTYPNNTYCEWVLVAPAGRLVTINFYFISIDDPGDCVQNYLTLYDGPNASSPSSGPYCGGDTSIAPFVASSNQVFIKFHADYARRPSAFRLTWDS

In the case of albumin (from UniProt P02768), the Kd (in general, the concentration at which binding is half-saturated) is 0.6 pM.
